According to patent US20250376498A1, “FUSION PROTEINS COMPRISING AN IMPROVED GLP-1 RECEPTOR AGONIST AND USES THEREOF” (Guangzhou Innogen Pharmaceutical Group Co., Ltd., priority 2022, published 2025):
“And” between values parts separate entries of the source, which are not always exact repeats. Equal values may be shown once.

Experiments:
[1] = Determination of oxidation levels by LC-MS/MS; format: physicochemical
Description: Following the protein oxidation measurement method described in Example 2 or by referring to Bettinger et al., the oxidation levels were determined. It was observed that the GLP-1 fusion protein YN-011 of the present invention was not oxidized at position W31, whereas the oxidation level of […] at the same position exceeded 5%. The oxidation occurred at the location indicated by the rectangular box in the structure of W31.

NASH Rhesus monkeys [2] = test: NASH Rhesus monkeys, MRI-PDFF quantitative analysis of hepatic steatosis; format: in vivo; conditions: for percentage reduction of MRI-PDFF liver fat compared to baseline: end of the treatment; for Change rate (%) of liver lipid content: (current - baseline)/baseline
Description: The GE 3.0T MRI scanner (750W3T MRI, GE Healthcare) was used for liver imaging in this study. The IDEAL-IQ sequence was employed, which combines the IDEAL (Iterative Decomposition of water and fat with Echo Asymmetry and Least-squares estimation) technique with fast three-dimensional multi-echo imaging. This technique includes multi-echo water-fat separation, region-growing algorithm, as well as various imaging methods for tissue fat quantification and R2* relaxation rate. Six contrast images, including in-phase, opposed-phase, water-only, fat-only, fat fraction maps, and R2* maps, were acquired through a single breath-hold scan by collecting signals from six different echo time (TE) values. The images were reconstructed using computer algorithms to obtain the aforementioned contrast images. The IDEAL-IQ hybrid water-fat separation algorithm consisted of two steps. The first step involved complex domain reconstruction to obtain water and fat images, as well as the T2* map. The second step generated an additional set of estimated water and fat images. These two sets of images were then combined using a hybrid algorithm to generate the final water and fat images.
Prior to conducting the experiment, a Phantom test was performed. Five standard fat solutions with known fat content were prepared by modifying the body phantom preparation method used by Clare P. et al.. Pure water was used as 0% fat. Sodium dodecyl sulfate (60 mmol) was dissolved in 1 L of deionized water, heated to 50° C., and then 40 g of gelatin was added and mixed thoroughly. […] of the aforementioned solution, respectively, to prepare solutions with fat contents of 0%, 2.5%, 5%, 10%, 20%, and 100%. These solutions were filled into six 100 ml EP tubes for subsequent scanning procedures.
Phantom validation experiments were performed before each scan. All animals underwent a baseline scan and one additional scan after the completion of the drug administration, totaling two scans. The anesthesia procedure was as follows: intramuscular injection of 10 mg/kg ketamine hydrochloride, endotracheal intubation, and maintenance of anesthesia with isoflurane and oxygen using a ventilator. During the scanning process, veterinary monitoring of electrocardiogramad oxygenation, respiratory rate, etc., was performed, and veterinary supervision was provided until the animals fully recovered consciousness and resumed spontaneous respiration.
Image Post-processing and Analysis: The collected and stored Hepatic steatosis MRI images of Rhesus monkeys were analyzed using the 750W 3T MRI workstation. The liver MRI images were selected by choosing the planes with the maximum exposure of the right hepatic lobe area (layers 1-3), avoiding large blood vessels, bile ducts, and gallbladder to prevent volume effects. Regions of interest (ROI) were selected, with each ROI having an area of 90-110 mm^2. Hepatic steatosis was defined as MRI-PDFF % (Magnetic Resonance Imaging Proton Density Fat Fraction)>6% (consistent with clinical standards).
(§1) Fifteen Rhesus monkeys were divided into 3 groups, with 5 monkeys in each group. They received subcutaneous injections of 0 (solvent control, placebo control group), 0.050, or 0.150 mg/kg of YN-011 once a week for 13 weeks (QW). The 0.150 mg/kg YN-011 group received adaptive dosing (0.1 mg/kg for the first dose, followed by 0.150 mg/kg for the remaining 12 doses).

NASH Rhesus monkeys [3] = test: NASH Rhesus monkeys, body weight, lipids, glucose, food consumption, tolerability; format: in vivo
Description: The in vivo pharmacological study of YN-011 was conducted in NASH Rhesus monkeys. The evaluated clinical parameters included liver lipid content assessed by MRI-PDFF %, NAFLD Activity Score (NAS), liver fibrosis stage assessed by liver histology, body weight, body mass index (BMI), blood lipid profile, fructose metabolism, other biochemical parameters, and food consumption.
The selected Rhesus monkeys were 11-23 years old, which corresponds to 30-70 years in humans. All Rhesus monkeys were males, with weights ranging from 13.63 to 22.85 kg. They had abnormal lipid metabolism for more than 2 years, MRI-PDFF % ranging from 7.8% to 11.9%, NAS scores of 3 or higher, and fibrosis scores of 0-1c within 6 months. These animals clinically met the definition of NASH.
as §1

patients with T2DM = test: Phase IIb and III clinical trials of YN-011 in combination with metformin in T2DM; format: in vivo; conditions: 3 mg YN-011 in combination with metformin, 24 weeks
Description: The Phase IIb and III clinical trials were multicenter, randomized, double-blind, placebo-controlled studies evaluating the efficacy and safety of YN-011 in patients with T2DM who had inadequate glycemic control on metformin therapy. The Phase IIb trial aimed to explore dose response and evaluate safety (divided into three groups: YN-011 1 mg+metformin, YN-011 3 mg+metformin, and placebo+metformin), to determine the Recommended Phase 3 Dose (RP3D) for the Phase III trial, which aimed at efficacy confirmation . . .
The inclusion criteria for subjects in the Phase IIb and III studies of YN-011 in combination with metformin were primarily the same as those in Implementation Example 10, except for the following point: • Diagnosed with type 2 diabetes for at least 8 weeks (WHO 2000), and met one of the following conditions: • a) Received monotherapy with metformin for >8 weeks with a dose of ≥1500 mg/day or maximum tolerated dose (<1500 mg/day but ≥1000 mg/day) (eligible subjects could directly enter the run-in period). • b) Received monotherapy with metformin for <8 weeks with a dose of ≥1500 mg/day or maximum tolerated dose (<1500 mg/day but ≥1000 mg/day) (eligible subjects needed to enter the metformin dose stabilization period). • c) Received monotherapy with metformin at a dose <1500 mg/day and had not reached the maximum tolerated dose (eligible subjects needed to enter the metformin dose titration period and dose stabilization period).
Please refer to the exclusion criteria in Implementation Example 10 for the primary exclusion criteria for subjects in the Phase IIb and III studies of YN-011 in combination with metformin.
Primary efficacy endpoints included the comparison of YN-011 in combination with metformin versus placebo in combination with metformin in terms of the change in HbA1c levels from baseline after 12 weeks (Phase IIb) or 24 weeks (Phase III) of double-blind administration in patients with T2DM who had inadequate glycemic control on metformin therapy. Please refer to Implementation Example 10 for the secondary efficacy endpoints and safety assessments.

B1: YN-011: GLP-1 fusion protein of SEQ ID NO: 7: GLP-1 (A8G, G22E, R36G), linker peptide and IgG2/Fc domain (C222S, A330S, P331S) (protein)
chain: HGEGTFTSDVSSYLEEQAAKEFIAWLVKGGGSSGAPPPSGGGGSERKSCVECPPCPAPPVAGPSVFLFPPKPKDTLMISRTPEVTCVVVDVSHEDPEVQFNWYVDGVEVHNAKTKPREEQFNSTFRVVSVLTVVHQDWLNGKEYKCKVSNKGLPSSIEKTISKTKGQPREPQVYTLPPSREEMTKNQVSLTCLVKGFYPSDIAVEWESNGQPENNYKTTPPMLDSDGSFFLYSKLTVDKSRWQQGNVFSCSVMHEALHNHYTQKSLSLSPG
For B1, the “oxidation level at position W31” value [1] was “not oxidized”, the “percentage reduction of MRI-PDFF liver fat compared to baseline” value (NASH Rhesus monkeys [2]; 50 μg/kg) was 43.8% and the “Average ROI Baseline (%) (liver lipid content, MRI-PDFF)” value (NASH Rhesus monkeys [2]; 0.05 mg/kg group, 0.05 mg/kg) was 9.0%±0.9% and 9.0 ± 0.9%. The “Mean ROI at day 80 of dosing (%) (liver lipid content, MRI-PDFF)” value (NASH Rhesus monkeys [2]; 0.05 mg/kg sc QW, 0.05 mg/kg) was 5.0%±0.2% and 5.0 ± 0.2** %, the “Change rate (%) of liver lipid content” value (NASH Rhesus monkeys [2]; 0.05 mg/kg sc QW) was −43.8 ± 7.4 % and the “Average ROI Baseline (%) (liver lipid content, MRI-PDFF)” value (NASH Rhesus monkeys [2]; 0.15 mg/kg group, 0.15 mg/kg) was 9.4%±1.5% and 9.4 ± 1.5%. For the same molecule, the “Mean ROI at day 80 of dosing (%) (liver lipid content, MRI-PDFF)” value (NASH Rhesus monkeys [2]; 0.15 mg/kg sc QW, 0.15 mg/kg) was 5.6%±1.5% and 5.6 ± 1.5** %, the “Change rate (%) of liver lipid content” value (NASH Rhesus monkeys [2]; 0.15 mg/kg sc QW) was −39.7 ± 14.2 % and the “percentage reduction of MRI-PDFF liver fat compared to baseline” value (NASH Rhesus monkeys [2]; 150 μg/kg) was 39.7%. The “decrease of liver lipid content compared to the placebo control group” value (NASH Rhesus monkeys [2]; after 13 weeks of weekly treatment) was “approximately 40%”, the food consumption (NASH Rhesus monkeys [3]) was “dose-dependent reduction” and the “high-density lipoprotein cholesterol (HDL-c) compared to baseline” value (NASH Rhesus monkeys [3]) was “decreasing trend”. For the same molecule, the “plasma fasting plasma glucose (FPG) levels, YN-011 vs placebo” value (NASH Rhesus monkeys [3]) was “no significant differences”, the “reduction of plasma fructosamine (FRA)” value (NASH Rhesus monkeys [3]; 150 μg/kg, after 12 weeks of treatment) was 4.3% and the adverse reactions (NASH Rhesus monkeys [3]; 0.050 or 0.150 mg/kg sc QW, 13 weeks) was “No significant adverse reactions”. The “body weight and BMI compared to baseline” value (NASH Rhesus monkeys [3]; Day 7-Day 84) was “significant decrease”, the “serum LDL-c, total cholesterol (TC) and total triglycerides (TG)” value (NASH Rhesus monkeys [3]; various time points during treatment) was “significantly reduced” and the “incidence of hypoglycemia (<3.9 mmol/L)” value (patients with T2DM) was 1.8%. The incidence of nausea (patients with T2DM) was 7.0%, the “reduction in FPG levels” value (patients with T2DM) was 2.42% and the “reduction in HbA1c levels” value (patients with T2DM) was 1.8%.
